Key:
[1] = target: human cardiac troponin-I-T-C complex (human) (UniProt P63316); assay: sandwich chemiluminescent immunoassay (…); detection 7G7 conjugate 30 ng/mL, capture M8020207 microparticles; cTnITC standard, 42 pM cTnT
[2] = target: Cardiac troponin-T (human) (UniProt P45379); assay: sandwich chemiluminescent immunoassay (…); detection 7G7 conjugate, capture M8020207 microparticles; cTnT 0.5 ug/mL
[3] = target: Cardiac troponin-T (human) (UniProt P45379); assay: sandwich chemiluminescent immunoassay (…); detection 7G7 conjugate, capture 1C11 microparticles; cTnT 0.25 ug/mL
[4] = target: human cardiac troponin-I-T-C complex (human) (UniProt P63316); assay: sandwich chemiluminescent immunoassay (…); detection 7G7 conjugate, capture M8020207 microparticles; human plasma spiked with cTnITC, nominal 7 pM cTnT
[5] = target: human cardiac troponin-I-T-C complex (human) (UniProt P63316); assay: sandwich chemiluminescent immunoassay (…); detection 7G7 conjugate 30 ng/mL, capture M8020207 microparticles; cTnITC standard, 279 pM cTnT
[6] = target: human cardiac troponin-I-T-C complex (human) (UniProt P63316); assay: sandwich chemiluminescent immunoassay (…); detection 7G7 conjugate, capture M8020207 microparticles; negative human plasma without spiked cTnITC (blank)
[7] = target: Cardiac troponin-T (human) (UniProt P45379); assay: sandwich chemiluminescent immunoassay (…); detection 7G7 conjugate, capture 1C11 microparticles; cTnT 1 ug/mL
[8] = target: Cardiac troponin-T (human) (UniProt P45379); assay: sandwich chemiluminescent immunoassay (…); detection 7G7 conjugate, capture M8020207 microparticles; cTnT 0 ug/mL (blank)
[9] = target: Cardiac troponin-T (human) (UniProt P45379); assay: sandwich chemiluminescent immunoassay (…); detection 7G7 conjugate, capture 1C11 microparticles; cTnT 2 ug/mL
[10] = target: human cardiac troponin-I-T-C complex (human) (UniProt P63316); assay: sandwich chemiluminescent immunoassay (…); detection 7G7 conjugate, capture M8020207 microparticles; human plasma spiked with cTnITC, nominal 42 pM cTnT as labelled in the table
[11] = target: Cardiac troponin-T (human) (UniProt P45379); assay: sandwich chemiluminescent immunoassay (…); detection 7G7 conjugate, capture 7F4 microparticles; cTnT 2 ug/mL
[12] = target: Cardiac troponin-T (human) (UniProt P45379); assay: sandwich chemiluminescent immunoassay (…); detection 7G7 conjugate, capture 7F4 microparticles; cTnT 0 ug/mL (blank)
[13] = target: human cardiac troponin-I-T-C complex (human) (UniProt P63316); assay: sandwich chemiluminescent immunoassay (…); detection 7G7 conjugate 30 ng/mL, capture M8020207 microparticles; cTnITC standard, 7 pM cTnT
[14] = target: Cardiac troponin-T (human) (UniProt P45379); assay: sandwich chemiluminescent immunoassay (…); detection 7G7 conjugate, capture M8020207 microparticles; cTnT 0.25 ug/mL
[15] = target: Cardiac troponin-T (human) (UniProt P45379); assay: sandwich chemiluminescent immunoassay (…); detection 7G7 conjugate, capture 7F4 microparticles; cTnT 1 ug/mL
[16] = target: Cardiac troponin-T (human) (UniProt P45379); assay: sandwich chemiluminescent immunoassay (…); detection 7G7 conjugate, capture 1C11 microparticles; cTnT 0 ug/mL (blank)
[17] = target: Cardiac troponin-T (human) (UniProt P45379); assay: sandwich chemiluminescent immunoassay (…); detection 7G7 conjugate, capture 7F4 microparticles; cTnT 0.25 ug/mL
[18] = target: Cardiac troponin-T (human) (UniProt P45379); assay: sandwich chemiluminescent immunoassay (…); detection 7G7 conjugate, capture M8020207 microparticles; cTnT 1 ug/mL
[19] = target: Cardiac troponin-T (human) (UniProt P45379); assay: sandwich chemiluminescent immunoassay (…); detection 7G7 conjugate, capture M8020207 microparticles; cTnT 2 ug/mL
[20] = target: Cardiac troponin-T (human) (UniProt P45379); assay: sandwich chemiluminescent immunoassay (…); detection 7G7 conjugate, capture 7F4 microparticles; cTnT 0.5 ug/mL
[21] = target: Cardiac troponin-T (human) (UniProt P45379); assay: sandwich chemiluminescent immunoassay (…); detection 7G7 conjugate, capture 1C11 microparticles; cTnT 0.5 ug/mL
[22] = target: human cardiac troponin-I-T-C complex (human) (UniProt P63316); assay: sandwich chemiluminescent immunoassay (…); detection 7G7 conjugate 30 ng/mL, capture M8020207 microparticles; cTnITC standard, 14 pM cTnT
[23] = target: human cardiac troponin-I-T-C complex (human) (UniProt P63316); assay: sandwich chemiluminescent immunoassay (…); detection 7G7 conjugate 30 ng/mL, capture M8020207 microparticles; cTnITC standard, 0 pM cTnT (blank)

RLU [1]: 81500 RLU
RLU [2]: 164000 RLU
RLU [3]: 79400 RLU
RLU [4]: 13800 RLU
RLU [5]: 423000 RLU
RLU [6]: 2070 RLU
RLU [7]: 238000 RLU
RLU [8]: 338 RLU
RLU [9]: 311000 RLU
RLU [10]: 74100 RLU
RLU [11]: 46800 RLU
RLU [12]: 333 RLU
RLU [13]: 15300 RLU
RLU [14]: 96200 RLU
RLU [15]: 29900 RLU
RLU [16]: 317 RLU
RLU [17]: 9080 RLU
RLU [18]: 251000 RLU
RLU [19]: 305000 RLU
RLU [20]: 17200 RLU
RLU [21]: 149000 RLU
RLU [22]: 28100 RLU
RLU [23]: 2370 RLU
Substance: Murine anti-cardiac troponin-T 7G7 acridinium-9-carboxamide conjugate (antibody)

From patent publication US20110129854A1
